Several values for one entry are separate records, joined by “and”; a condition that tells them apart may be missing. Equal entries are not always repeated. Where two headings read alike, the source gives them in different places.
Tests used:
[1] = molecular target: T1, rpVEGF164 (porcine/pig; AssayGenie_KPRT0149) (Porcine/Pig, UniProt P49151 27-190); experiment: ELISA on coated pig VEGF-A
T1 construct: Bought protein; also called Pig VEGF-A
T1 sequence (looked up): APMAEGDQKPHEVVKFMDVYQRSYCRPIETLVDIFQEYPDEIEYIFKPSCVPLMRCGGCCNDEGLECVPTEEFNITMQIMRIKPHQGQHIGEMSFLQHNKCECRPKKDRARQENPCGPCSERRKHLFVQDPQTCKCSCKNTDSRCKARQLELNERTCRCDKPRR

[2] = molecular target: T2, Recombinant human VEGF165 (Peprotech, Cat #100-20) (human, UniProt P15692-4 27-191); experiment: ELISA; rhVEGF165 coated, anti-human IgG Fc-HRP detection
T2 construct: Bought protein; also called rhVEGF165; rh VEGF165
From the text: The binding was detected by HRP-conjugated donkey anti-human IgG Fcγ antibody (Jackson ImmunoResearch Laboratories, Cat #709-035-098).

[3] = molecular target: T2, Recombinant human VEGF165 (Peprotech, …); experiment: as above; remark: listed apart in the source
Protocol: VEGF₁₆₅ was used to coat Corning 9017 medium binding plates. […] Donkey anti-human IgG Fcγ-HRP (Jackson ImmunoResearch Laboratories, Cat #709-035-098) was used for detection and visualized by TMB substrate. OD450 nm readings were measured by Victor 3 with PerkinElmer 1420 Multilabel Counter.

[4] = molecular target: T3, Recombinant human ANG-2 (R&D Systems, Cat #623-AN-025/CF) (human, UniProt O15123 19-496, limits assumed); experiment: ELISA on rhANG-2 by an independent team; average of three values
T3 construct: also called rhANG-2
T3 sequence (looked up): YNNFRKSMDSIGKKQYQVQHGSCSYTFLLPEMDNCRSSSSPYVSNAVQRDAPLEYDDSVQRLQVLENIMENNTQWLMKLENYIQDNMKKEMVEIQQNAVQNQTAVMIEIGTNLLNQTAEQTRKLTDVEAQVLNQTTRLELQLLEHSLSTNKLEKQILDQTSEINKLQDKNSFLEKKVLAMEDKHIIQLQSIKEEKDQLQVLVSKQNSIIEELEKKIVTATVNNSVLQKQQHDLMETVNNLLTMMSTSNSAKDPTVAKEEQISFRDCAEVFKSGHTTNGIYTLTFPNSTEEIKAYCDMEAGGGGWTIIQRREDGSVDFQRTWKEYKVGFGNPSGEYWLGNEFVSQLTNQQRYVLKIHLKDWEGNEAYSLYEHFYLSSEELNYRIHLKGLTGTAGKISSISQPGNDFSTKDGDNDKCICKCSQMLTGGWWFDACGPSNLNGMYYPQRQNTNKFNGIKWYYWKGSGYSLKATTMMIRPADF

[5] = molecular target: T4, His-tagged recombinant human ANG-2 (AcroBiosystems, Cat #AN2-H52H4) (human, UniProt O15123 275-496); experiment: ELISA; rhANG-2 (AcroBiosystems) coated, anti-human IgG Fc-HRP detection
T4 construct: also called rhANG-2; rhANG-2-His; not shown: His tag
T4 sequence (looked up): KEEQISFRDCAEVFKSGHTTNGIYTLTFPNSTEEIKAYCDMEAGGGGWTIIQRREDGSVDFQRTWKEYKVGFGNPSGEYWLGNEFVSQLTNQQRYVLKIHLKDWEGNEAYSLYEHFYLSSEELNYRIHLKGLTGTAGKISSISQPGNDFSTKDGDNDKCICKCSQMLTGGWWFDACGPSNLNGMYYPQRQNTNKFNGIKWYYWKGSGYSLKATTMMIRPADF
Protocol: Donkey anti-human IgG Fcγ-HRP (Jackson ImmunoResearch Laboratories, Cat #709-035-098) was used for detection and visualized by TMB substrate. OD450 nm readings were measured by Victor 3 with PerkinElmer 1420 Multilabel Counter.

[6] = molecular target: T2, Recombinant human VEGF165 (Peprotech, …); experiment: competition ELISA; rhVEGF165 coated, competitor biotinylated rhVEGF R2/KDR
Protocol: The mixture was added to ELISA binding plates which contained rhVEGF₁₆₅ coating. […] The receptor binding was detected by HRP-conjugated streptavidin (Jackson ImmunoResearch Laboratories, Cat #016-030-084) and visualized by TMB substrate.

[7] = molecular target: T4, His-tagged recombinant human ANG-2 …; experiment: competition ELISA; His-tagged rhANG-2 in solution, competitor coated rhTie-2-Fc
[8] = molecular target: T5, Recombinant human VEGF121 (Peprotech, Cat #100-20A) (human, UniProt P15692-9 27-147); experiment: ELISA; rhVEGF121 coated at 1 ug/mL, anti-human IgG Fc-HRP detection (RO-101_Sample 1)
T5 construct: Bought protein; also called rhVEGF121; rh VEGF121
T5 sequence (looked up): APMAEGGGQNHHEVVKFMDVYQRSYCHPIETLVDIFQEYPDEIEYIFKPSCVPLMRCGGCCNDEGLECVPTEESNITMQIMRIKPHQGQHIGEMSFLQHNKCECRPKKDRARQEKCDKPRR
Protocol: Donkey anti-human IgG Fcγ-HRP (Jackson ImmunoResearch Laboratories, Cat #709-035-098) was used for detection and visualized by TMB substrate. OD450 nm readings were measured by Victor 3 (PerkinElmer 1420 Multilabel Counter).

[9] = molecular target: T6, rhVEGF-C (AcroBio_VEC-H4225) (human, UniProt P49767 103-227, limits assumed); experiment: ELISA: rhVEGF-C_AcroBio coated at 1 ug/mL, RO-101_Sample 1 titrated, detected with anti-human IgG Fc-gamma-HRP
T6 construct: domain: PDGF domain; Bought protein; not shown: His tag
T6 sequence (looked up): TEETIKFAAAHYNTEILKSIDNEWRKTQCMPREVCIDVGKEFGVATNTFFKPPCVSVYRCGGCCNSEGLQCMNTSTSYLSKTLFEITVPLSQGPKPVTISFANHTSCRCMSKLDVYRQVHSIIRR
Protocol: Different target proteins were used to coat Corning 9017 medium binding plates at 1 μg/mL and 100 μl per well. Donkey anti-human IgG Fcγ-HRP was used for detection. OD450 nm readings were measured by Victor 3.

EC50 [1]: 0.0198 nM
EC50 [2]: 0.0401 nM and 0.0556 nM and 0.0417 nM
EC50 [3]: 0.0231 nM
average EC50 [4]: 0.0491 nM
EC50 [5]: 0.0118 nM and 0.0138 nM
IC50 [6]: 1.99 nM
IC50 [7]: 0.787 nM
EC50 [8]: 0.0146 nM
binding result [9]: no binding (tested: 100 nM (Log(nM) 2))
B1: RO-101 VEGF/ANG-2 bispecific surrobody (bispecific antibody, human IgG1, L234A L235A)
heavy 1: not shown
heavy 2: EVQLVESGGGLVKPGGSLRLSCAASGFTFSSYGMHWVRQAPGKGLEWVAGISADSGDKNYADSVKGRFTISRDNAKNSLYLQMNSLRAEDTAVYYCAKEFISWIYTFDYLDYWGQGTLVTVSSASTKGPSVFPLAPSSKSTSGGTAALGCLVKDYFPEPVTVSWNSGALTSGVHTFPAVLQSSGLYSLSSVVTVPSSSLGTQTYICNVNHKPSNTKVDKKVEPKSCDKTHTCPPCPAPEAAGGPSVFLFPPKPKDTLMISRTPEVTCVVVDVSHEDPEVKFNWYVDGVEVHNAKTKPREEQYNSTYRVVSVLTVLHQDWLNGKEYKCKVSNKALPAPIEKTISKAKGQPREPQVCTLPPSRDELTKNQVSLSCAVKGFYPSDIAVEWESNGQPENNYKTTPPVLDSDGSFFLVSKLTVDKSRWQQGNVFSCSVMHEALHNHYTQKSLSLSPG
light: QPVLHQPPAMSSALGTTIRLTCTLRNDHDIGVYSVYWYQQRPGHPPRFLLRYFSQSDKSQGPQVPPRFSGSKDVARNRGYLSISELQPEDEAMYYCAMGARSSVTHVFGSGTQLTVLSQPKATPSVTLFPPSSEELQANKATLVCLMNDFYPGILTVTWKADGTPITQGVEMTTPSKQSNNKYAASSYLSLTPEQWRSRRSYSCQVMHEGSTVEKTVAPAECS
notes: Format SgG1; also called Sample 1
